System: JAK2
Experiment: in vitro tyrosine phosphatase assay, substrate JAK2
Type: biochemical, mouse
Conditions: 30° C., 20 min
Protocol: For tyrosine phosphatase assays, immunoprecipitated Lyn, JAKs or STATs from lysates of 10^7 BMMCs (for Lyn, JAK1, JAK2, STAT3 and STAT5) or macrophages (for Tyk2) were washed in lysis buffer and phosphatase reaction buffer [Felberg et al., J. Biol. Chem. 273:17839-17845, 1998]. The amounts of Lyn and JAK2 in the immunoprecipitates used in FIG. 3A were 72 ng and 48 ng, respectively, as determined by silver staining. Recombinant CD45 was added to substrates in the presence or absence of 0.1 mM Na3 VO4 followed by incubation at 30° C. for 20 min. Tyrosine phosphorylation was monitored by immunoblotting with phosphotyrosine-specific antibodies. The extent of tyrosine phosphorylation and amount of substrates were determined by quantifying the intensities of the immunoblots with NIH Image 1.61 software. Kinase activity in anti-Lyn or anti-JAK immunoprecipitates was assessed by an in vitro kinase assay with Raytide (Oncogen Science) as a substrate or using authophosphorylation [Lui et al., Genes Dev. 13:786-791, 1999]. In vitro binding assays were performed as described [Felberg et al., J. Biol. Chem. 273:17839-17845, 1998], using 1 μg of soluble GST, GST-CD45-D2, or GST-PTPase-dead CD45 (D1:C828S). EMSAs were as described [Charurvedi et al., Mol. Cell. Biol. 17:3295-3304, 1997]. The sequences of the EMSA probes were: STAT3, 5′-[…]-3′ (SEQ ID NO: 1); STAT3 mutant, 5′-[…]-3′ (SEQ ID NO: 2).
To determine whether CD45 could directly dephosphorylate JAKs and/or STATs, phosphatase assays were used in in vitro studies with recombinant CD45. The rCD45 employed contained the intracellular dual PTPase domains with a relative molecular mas of 97,000 (Mr 97K) (the catalytic D1 and the non-catalytic D2 domains) of CD45 but lacked its extracellular regions. […] Phosphorylation was examined with anti-phosphoryrosine, anti-phospho-Tyr 705 STAT3 (P-Y705-STAT3), and anti-phospho-Try 1007/Try 1008 JAK2 (P-Y1007/1008-JAK2). Assays were performed with 10U (for JAK2) or 90U (for STAT3) of rCD45. […]

B1: TC-PTP: human non-receptor tyrosine PTPase, from Calbiochem (protein)
chain: MPTTIEREFEELDTQRRWQPLYLEIRNESHDYPHRVAKFPENRNRNRYRDVSPYDHSRVKLQNAENDYINASLVDIEEAQRSYILTQGPLPNTCCHFWLMVWQQKTKAVVMLNRIVEKESVKCAQYWPTDDQEMLFKETGFSVKLLSEDVKSYYTVHLLQLENINSGETRTISHFHYTTWPDFGVPESPASFLNFLFKVRESGSLNPDHGPAVIHCSAGIGRSGTFSLVDTCLVLMEKGDDINIKQVLLNMRKYRMGLIQTPDQLRFSYMAIIEGAKCIKGDSSIQKRWKELSKEDLSPAFDHSPNKIMTEKYNGNR
dephosphorylation of JAK2: did not dephosphorylate JAK2

B2: lambda PTPase: bacterial lambda PTPase, from Calbiochem (protein)
chain: MRYYEKIDGSKYRNIWVVGDLHGCYTNLMNKLDTIGFDNKKDLLISVGDLVDRGAENVECLELITFPWFRAVRGNHEQMMIDGLSERGNVNHWLLNGGGWFFNLDYDKEILAKALAHKADELPLIIELVSKDKKYVICHADYPFDEYEFGKPVDHQQVIWNRERISNSQNGIVKEIKGADTFIFGHTPAVKPLKFANQMYIDTGAVFCGNLTLIQVQGEGA
dephosphorylation of JAK2: did not dephosphorylate JAK2

B3: PTPase-dead rCD45: PTPase-dead recombinant CD45, D1:C828S mutant (protein, UniProt P08575 26-1306, looked up, variant C828S)
Receptor-type …: QSPTPSPTGLTTAKMPSVPLSSDPLPTHTTAFSPASTFERENDFSETTTSLSPDNTSTQVSPDSLDNASAFNTTGVSSVQTPHLPTHADSQTPSAGTDTQTFSGSAANAKLNPTPGSNAISDVPGERSTASTFPTDPVSPLTTTLSLAHHSSAALPARTSNTTITANTSDAYLNASETTTLSPSGSAVISTTTIATTPSKPTCDEKYANITVDYLYNKETKLFTAKLNVNENVECGNNTCTNNEVHNLTECKNASVSISHNSCTAPDKTLILDVPPGVEKFQLHDCTQVEKADTTICLKWKNIETFTCDTQNITYRFQCGNMIFDNKEIKLENLEPEHEYKCDSEILYNNHKFTNASKIIKTDFGSPGEPQIIFCRSEAAHQGVITWNPPQRSFHNFTLCYIKETEKDCLNLDKNLIKYDLQNLKPYTKYVLSLHAYIIAKVQRNGSAAMCHFTTKSAPPSQVWNMTVSMTSDNSMHVKCRPPRDRNGPHERYHLEVEAGNTLVRNESHKNCDFRVKDLQYSTDYTFKAYFHNGDYPGEPFILHHSTSYNSKALIAFLAFLIIVTSIALLVVLYKIYDLHKKRSCNLDEQQELVERDDEKQLMNVEPIHADILLETYKRKIADEGRLFLAEFQSIPRVFSKFPIKEARKPFNQNKNRYVDILPYDYNRVELSEINGDAGSNYINASYIDGFKEPRKYIAAQGPRDETVDDFWRMIWEQKATVIVMVTRCEEGNRNKCAEYWPSMEEGTRAFGDVVVKINQHKRCPDYIIQKLNIVNKKEKATGREVTHIQFTSWPDHGVPEDPHLLLKLRRRVNAFSNFFSGPIVVHSSAGVGRTGTYIGIDAMLEGLEAENKVDVYGYVVKLRRQRCLMVQVEAQYILIHQALVEYNQFGETEVNLSELHPYLHNMKKRDPPSEPSPLEAEFQRLPSYRSWRTQHIGNQEENKSKNRNSNVIPYDYNRVPLKHELEMSKESEHDSDESSDDDSDSEEPSKYINASFIMSYWKPEVMIAAQGPLKETIGDFWQMIFQRKVKVIVMLTELKHGDQEICAQYWGEGKQTYGDIEVDLKDTDKSSTYTLRVFELRHSKRKDSRTVYQYQYTNWSVEQLPAEPKELISMIQVVKQKLPQKNSSEGNKHHKSTPLLIHCRDGSQQTGIFCALLNLLESAETEEVVDIFQVVKALRKARPGMVSTFEQYQFLYDVIASTYPAQNGQVKKNNHQEDKIEFDNEVDKVKQDANCVNPLGAPEKLPEAKEQAEGSEPTSGTEGPEHSVNGPASPALNQGS
dephosphorylation of JAK2: did not dephosphorylate JAK2
